Residue numbers refer to the chain shown, from its start.

Sequences and labels used below:
B1: 44H10E8: murine-derived anti-cMET monoclonal antibody; VL SEQ ID NO: 5, VH SEQ ID NO: 6 (antibody, V domains shown)
VH: QVHLQQSGAELARPGASVKMSCKASGYTFISYTIHWVKQSPGQGLEWIGYINPSSGYAKNNPKFQDKATLTADTSSTTAYIQLSSLTSEDSAVYYCTRPYGDFVDWYFDVWGTGTTVTVSS
VL: NIMMTQSPSSLAVSAGEKVTMNCKSSQSVLYFSNQKNCLAWYQQKPGQSPKLLIYWASTRESGVPDRFTGSGSGTDFTLTISSVQADDLAVYYCQQYLSSLTFGAGTKLELK
B2: 55A10G6: murine-derived anti-cMET monoclonal antibody; VL SEQ ID NO: 3, VH SEQ ID NO: 4 (antibody, V domains shown)
VH: QIQLQQSGPELVKPGASVKISCKASGYTFTDYYLNWVRQRPGQGLEWIGWIFPGSGNTKYIEKFKGKATLTVDTSSSTAYMLLSSLTSEDSAVYFCAGGDYGGFTYWGQGTLVAVSA
VL: DIQMTQSPPSLSASVGETVTITCGASENIYGALNWYQRKQGKSPQLLIYGATNLAAGMSSRFSGSGSGRQFSLKISSLHPDDVATYYCQNVLSEPLTFGAGTKLELK
B3: 45A5G10: murine-derived anti-cMET monoclonal antibody; VL SEQ ID NO: 1, VH SEQ ID NO: 2 (antibody, V domains shown)
VH: EVRLEESGGGFVQPGGSMKISCVASGFTFSNYWMNWVRQSPEKGLEWVAQIRLKSLNYATHYAESVKGRFTISRDDSRNSVYLQMNNLRAEDAGIYYCTEEGFAYWGRGTLVTVSA
VL: IVMTQSPASLPVSLGQRATISCRASESVDDYGVSFVNWFQQKPGQPPKLLIYTASVQESGVPARFSGSGSGTDFSLNIHPLEEDDTAMYFCQQSKEIPPTFGGGTKLEIK
B4: 41F5B2: murine-derived anti-cMET antibody of Table 1; probably clone 51D5B2 (VL SEQ ID NO: 7, VH SEQ ID NO: 8) (antibody, V domains shown)
VH: B3 VH with E6D
VL: B3 VL with S75R

The target in the first assay is T1, cMet-ECD-hFc (Homo sapiens, UniProt P08581).
T1 construct: made in house; host or cells: HEK293E
T1 sequence (P08581 25-932): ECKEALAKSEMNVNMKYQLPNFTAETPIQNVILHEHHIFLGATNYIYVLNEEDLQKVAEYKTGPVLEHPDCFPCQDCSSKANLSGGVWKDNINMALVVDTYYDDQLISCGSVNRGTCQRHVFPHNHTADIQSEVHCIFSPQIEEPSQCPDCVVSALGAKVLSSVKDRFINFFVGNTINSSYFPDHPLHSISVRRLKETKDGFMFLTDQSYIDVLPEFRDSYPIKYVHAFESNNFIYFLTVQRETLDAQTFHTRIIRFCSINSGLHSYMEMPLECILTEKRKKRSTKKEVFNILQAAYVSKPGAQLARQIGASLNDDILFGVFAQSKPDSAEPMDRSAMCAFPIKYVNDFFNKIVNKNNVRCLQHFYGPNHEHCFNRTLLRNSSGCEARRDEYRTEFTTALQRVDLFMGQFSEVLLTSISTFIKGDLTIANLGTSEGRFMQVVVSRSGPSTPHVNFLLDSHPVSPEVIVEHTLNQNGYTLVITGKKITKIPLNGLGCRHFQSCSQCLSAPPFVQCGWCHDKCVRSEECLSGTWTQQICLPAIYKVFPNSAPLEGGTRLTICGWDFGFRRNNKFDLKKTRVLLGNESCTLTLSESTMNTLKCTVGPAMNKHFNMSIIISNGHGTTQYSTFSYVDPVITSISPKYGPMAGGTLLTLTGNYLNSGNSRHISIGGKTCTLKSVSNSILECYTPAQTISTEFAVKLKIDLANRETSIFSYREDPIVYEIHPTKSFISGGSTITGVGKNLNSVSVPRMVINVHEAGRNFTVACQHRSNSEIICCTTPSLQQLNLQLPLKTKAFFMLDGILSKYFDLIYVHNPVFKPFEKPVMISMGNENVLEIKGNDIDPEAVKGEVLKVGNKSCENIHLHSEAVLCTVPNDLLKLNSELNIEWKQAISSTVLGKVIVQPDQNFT
Description: ELISA affinity of murine-derived antibodies to human MET-ECD-hFc. Format: binding. The protocol:
(§1) 4 mice, all female, are selected from each of strains of CDT (Vital River), KM (Vital River), and Balb/c (Gempharmatech Co., Ltd.), and are enrolled into a group at about 6 weeks old. Immunization is performed using cMET-His and hcMET-mFc (Sichuan Sibowo Biotechnology Co., Ltd.), and after 2 times of booster immunization, serum titers are detected through ELISA. For a mouse with a higher ELISA protein titer, an affinity titer of tumor cells MKN-45 and a competition FACS titer of MKN45-HGF are detected through FACS. Finally, 1 mouse from each of CD1, KM, and Balb/c is selected, and the spleen and lymph node thereof are used to prepare cell suspensions for hybridoma fusion with SP2/0 mouse myeloma cells. ELISA preliminary screening is performed through human hMET-ECD-hFc antigen proteins, and after the preliminary screening, positive hybridomas are selected to be cloned. Hybridoma cells are cultured in a serum-free medium, and a collected monoclonal supernatant is purified through the ProA filler to obtain murine-derived antibodies. Affinities of the murine-derived antibodies to human MET-ECD-hFc and cyno MET-ECD-hFc proteins are detected through ELISA, and the affinity of the murine-derived antibodies to the MKN45 tumor cells and blocking of MKN45-HGF ligand competition is detected through FACS.
On the technique in general: ELISA stands for enzyme-linked immunosorbent assay.
Consider B1, for which the “cMet-ECD-hFc (EC50 = ng/ml)” value came out at 15.76 ng/mL.
For B2, the “cMet-ECD-hFc (EC50 = ng/ml)” value was 7.701 ng/mL.
Regarding B3, the “cMet-ECD-hFc (EC50 = ng/ml)” value is 6.387 ng/mL.
Take B4: the “cMet-ECD-hFc (EC50 = ng/ml)” value came to 4.807 ng/mL.

The subject of the next assay is Cyno.cMet-ECD-hFc. Description: ELISA affinity of murine-derived antibodies to cyno MET-ECD-hFc. The format is binding. The protocol: as §1
On to B1, for which the “Cyno.cMet-ECD-hFc (EC50 = ng/ml)” value is 25.72 ng/mL.
As to B2, the “Cyno.cMet-ECD-hFc (EC50 = ng/ml)” value worked out at 14.9 ng/mL.
On the same count and under the same terms, under B3 stands 10.34 ng/mL.

A further assay deals with T2, MKN45-HGF (Homo sapiens, UniProt P08581).
T2 construct: MKN45 cells expressing c-MET antigens; endogenous in cells; host or cells: MKN45
T2 sequence (P08581 25-1390): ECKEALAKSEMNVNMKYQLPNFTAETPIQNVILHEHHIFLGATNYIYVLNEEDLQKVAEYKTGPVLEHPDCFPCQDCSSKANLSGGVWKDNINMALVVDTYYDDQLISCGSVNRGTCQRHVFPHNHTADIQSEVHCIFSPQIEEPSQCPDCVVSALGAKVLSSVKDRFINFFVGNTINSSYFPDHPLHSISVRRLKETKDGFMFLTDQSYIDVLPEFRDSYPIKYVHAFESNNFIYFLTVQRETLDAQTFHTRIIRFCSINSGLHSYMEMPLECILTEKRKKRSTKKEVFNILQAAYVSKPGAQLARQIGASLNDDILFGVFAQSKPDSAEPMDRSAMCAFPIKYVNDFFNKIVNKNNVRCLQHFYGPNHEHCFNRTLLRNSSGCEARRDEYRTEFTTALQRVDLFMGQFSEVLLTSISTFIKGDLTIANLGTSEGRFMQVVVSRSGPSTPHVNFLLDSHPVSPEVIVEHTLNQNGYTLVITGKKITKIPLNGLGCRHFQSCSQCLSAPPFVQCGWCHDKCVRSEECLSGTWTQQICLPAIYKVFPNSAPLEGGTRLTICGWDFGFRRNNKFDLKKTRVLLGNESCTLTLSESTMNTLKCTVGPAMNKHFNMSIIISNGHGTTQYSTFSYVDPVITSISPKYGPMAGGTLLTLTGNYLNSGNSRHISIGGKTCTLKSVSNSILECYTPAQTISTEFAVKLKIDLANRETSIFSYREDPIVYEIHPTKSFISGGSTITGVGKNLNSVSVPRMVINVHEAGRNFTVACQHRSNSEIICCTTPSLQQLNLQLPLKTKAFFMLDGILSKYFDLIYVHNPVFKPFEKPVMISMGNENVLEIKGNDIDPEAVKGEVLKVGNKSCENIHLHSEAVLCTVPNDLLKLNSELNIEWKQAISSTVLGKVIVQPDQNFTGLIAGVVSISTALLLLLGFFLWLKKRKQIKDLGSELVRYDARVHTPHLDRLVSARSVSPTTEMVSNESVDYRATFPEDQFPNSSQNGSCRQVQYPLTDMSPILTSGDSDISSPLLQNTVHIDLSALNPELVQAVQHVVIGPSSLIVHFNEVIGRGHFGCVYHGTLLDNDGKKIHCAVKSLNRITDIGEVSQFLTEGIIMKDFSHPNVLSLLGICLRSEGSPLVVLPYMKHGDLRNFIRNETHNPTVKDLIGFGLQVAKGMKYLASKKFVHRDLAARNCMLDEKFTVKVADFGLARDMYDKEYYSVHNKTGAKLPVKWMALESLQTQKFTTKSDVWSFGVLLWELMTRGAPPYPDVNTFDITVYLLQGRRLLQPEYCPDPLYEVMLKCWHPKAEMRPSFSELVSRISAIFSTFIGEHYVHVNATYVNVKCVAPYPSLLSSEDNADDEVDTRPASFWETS
Description: FACS blocking of MKN45-HGF ligand competition (murine-derived antibodies). Format: binding. The protocol:
as §1
Regarding B1, the “MKN45-HGF competition (IC50 = ng/ml)” value came to 88.57 ng/mL.
For the molecule B2, the “MKN45-HGF competition (IC50 = ng/ml)” value was 31.28 ng/mL.
Regarding B3, the “MKN45-HGF competition (IC50 = ng/ml)” value was 53.28 ng/mL.
With B4, the “MKN45-HGF competition (IC50 = ng/ml)” value is listed as “No activity”.

A further assay concerns MKN45 tumor cells. Description: FACS affinity of murine-derived antibodies to MKN45 tumor cells. The format is binding, human. The protocol:
as §1
B1: the “MKN45 (EC50 = ng/ml)” value stood at 149.7 ng/mL.
Regarding B2, the “MKN45 (EC50 = ng/ml)” value turned out to be 63.08 ng/mL.
On to B3, for which the “MKN45 (EC50 = ng/ml)” value worked out at 41.25 ng/mL.
Still for that read-out and setting: under B4 stands 348.5 ng/mL.

The record behind these values is patent publication US20260216354A1, “ANTI-CMET ANTIBODY, ANTIBODY-DRUG CONJUGATE, AND PREPARATION METHOD THEREFOR AND USE THEREOF” (MEDILINK THERAPEUTICS (SUZHOU) CO., LTD., priority 2022, published 2026).
